Test results as given in the RNAGym collection of RNA variant scans (doi:10.7554/elife.90254).

B1: OR4K15 (parent)
chain: GUUAACGGUCAUAGGCCAUGGAAACUAGGAGCACCAUUUCGCUGCCAGUGAAGAAAUGAACAAAGAAAAUCUGGGCCAGGCAGGCAUCAAAAGAAAUAGUCUUGCGCUCAACCAGAAAGUCUGUAAUCAUUUUAAGGGUA

Variants of: B1
Assay: self-cleavage, relative activity (ratio to wild type); higher = more cleavage; in vitro, sequencing; the parent is a self-cleaving ribozyme

Variant	self-cleavage
GUUAACGGUCAUAGGCCAUGGAGACUAGGAGCACCAUUUCGCUGCCAGUGAAGAAAUGAACAAAGAAAAUCUGGGCCAGGCAGGCAUCAAAAGAAAUAGUCUUGCGCACAACCAGAAAGUCUGUAAUCAUUUUAAGGGUA	0.02
GAUAACGGUCAUAGGCCAUGGAAACUAGGAGCACCAUUUCGCUGCCAGUGAAGAAAUGAGCAAAGAAAAUCUGGGCCAGGCAGGCAUCAAAAGAAAUAGUCUUGCGCUCAACCAGAAAGUCUGUAAUCAUUUUAAGGGUA	1.13
GUUAACGGUCAUAGGCCAUGGAAACUAGGAGCACCACUUCGCUGCUAGUGAAGAAAUGAACAAAGAAAAUCUGGGCCAGGCAGGCAUCAAAAGAAAUAGUCUUGCGCUCAACCAGAAAGUCUGUAAUCAUUUUAAGGGUA	1.33
GUUAACGGUCAUAGGCCAUGGAAACUAGGAGCACCAUUUCGCUGCCAGUGAAGAAAUGAACAAAGAAAAUCUGGGCCAGGCAGGCAUCAAAAGAAUUAGUCUUGCGCCCAACCAGAAAGUCUGUAAUCAUUUUAAGGGUA	0
GUUAACGGUCAUAGGCCAUGGAAACUAGGAGCACCAUUUCGCUGCCAGUGAAGAAAUGAACAAAGAAAAUCUGGGCCAGGCAGGCAUCAGAAGAAAUAGUCUUGCGCUCAACCAGAAAGUCUGUAAUCAUUUUUAGGGUA	1.49
GUUAACGGUCAUAGGCCAAGGAAACUAGGAGCACCAUUUCGCUGCCAGUGAAGAAAUGAACAAAGAAAAUCUGGGCCAGGCAGGCAUCAAAAGAAAUAGUCUUGCGCUCAACCAGAAAGUCUGUAAUCACUUUAAGGGUA	0.95
GUUAACGGUCAUAGGCCAUGGAAACUAGGAGCACCAUUUCGCUGCCAGUGAAGAAAUGCACAAAGAAAAUCUGGGCCAGGCAGGCAUCAAAAGAAAUAGUCUUGCGCUCAACCAGAAAGUCUGUAAUCAUUUUAAGGGUU	1.46
GUUAACGGUCAUAGGCCAUGGAAACUAGGAGCACCAUUUCGCUGCCAGUGAAGAAAUGAACAAAGAAAAUCUGGGCCAGGCAGGCAUCAAGAGUAAUAGUCUUGCGCUCAACCAGAAAGUCUGUAAUCAUUUUAAGGGUA	1.02
GUUAACGGUCAUAGGCCAUGGAAACUAGGAGCACCAUUUCGCUGCCAGUGACGAAAUGAACAAAGAAAAUCUGGGCCAGGCAGGCAUCAAAAGAAAUAGUCUUGCGCUCAACCAGAAAGCCUGUAAUCAUUUUAAGGGUA	0.58
GUUAACGGUCAUAGGCCAUGGAAACUAGGAGCACCAUUUCGCUGCCAGUGAAGAAAUGAACAAAGAAAAUCUGGGCCAGGCAGGCAUCAAAAGAAAUAGUCUUUCGCUCAACCAGAAAGUCUGUAAUCAUUUUAAGGGUA	0.02
GUUAACGGUCAUAGGCCAUGGAAACUAGGAGCACCAUUUCGCUGCCAGUGAAGAAAUGAACAAAGAAAAUCUGGGCCAGGCAGGCAUCAAAAGAAACAGUCUUGCGCUCAACCAGAAGGUCUGUAAUCAUUUUAAGGGUA	0.77
GUUAACGGCCAUAGGCCAUGGAAACUAGGAGCACCAUUUCGCUGCCAGUGAAGAAAUGAACAAAGAAAAUCUGGGCCAGGCAGGCAUCAAUAGAAAUAGUCUUGCGCUCAACCAGAAAGUCUGUAAUCAUUUUAAGGGUA	1.49
GUUAACGGUCAUAGGCCAUGGAAACUAGGAGCACCAUUUCGCUGCCAGUGUAGAAAUGAACAAAGAAAAUCUGGGCCAGGCAGGCAUCAAAAGAAAUAGUCUUGCGCUCAACCAGAAAGUCUGUAAUCAUUUUAAGGGUA	1.5
GUUAACGGUCAUAGGCCAUGGAAACUAGGAGCACCAUUUCGCUGCCAGUGAAGAAAUGAACAAAGAAAAUCUGGGCCAGGCCGGCAUCAAAAGAAAUAGUCUUGCGCUCAACCAGAAAGUCUGUAAUCAUUUUAGGGGUA	0.15
GUUAACGGUCAUAGGCCAUGGAAACUAGGAGCACCAUUUCGCUGCCAGUGAAGAAAUGAACAAAGAAAAUCUGGGCCAGGCAGGCAUCAAAAGAAAUAGUCUUGCGCUCCACCAGGAAGUCUGUAAUCAUUUUAAGGGUA	0.26
GUUGACGGUCAUAGGCCAUGGAAACUAGGAGCACCAUUUCGCAGCCAGUGAAGAAAUGAACAAAGAAAAUCUGGGCCAGGCAGGCAUCAAAAGAAAUAGUCUUGCGCUCAACCAGAAAGUCUGUAAUCAUUUUAAGGGUA	1.26
GUUAACGGUCACAGGCCAUGGAAACUAGGAGCACCAUUUCGCUGCCAGUGUAGAAAUGAACAAAGAAAAUCUGGGCCAGGCAGGCAUCAAAAGAAAUAGUCUUGCGCUCAACCAGAAAGUCUGUAAUCAUUUUAAGGGUA	1.38
GUUAACGGUCAUAGGCCAUGGAAUCUAGGAGCACCAUUUCGCUGCCAGUGAAGAAAUGAACAAAGAAAAUCUGGGCCAGGCAGGCAUCAAAAGAAAUAGUCUUGCGCUCGACCAGAAAGUCUGUAAUCAUUUUAAGGGUA	0.13
GUUAACGGUCAGAGGCCAUGGGAACUAGGAGCACCAUUUCGCUGCCAGUGAAGAAAUGAACAAAGAAAAUCUGGGCCAGGCAGGCAUCAAAAGAAAUAGUCUUGCGCUCAACCAGAAAGUCUGUAAUCAUUUUAAGGGUA	1.13
GUUAACGGUCAUAGGCCCCGGAAACUAGGAGCACCAUUUCGCUGCCAGUGAAGAAAUGAACAAAGAAAAUCUGGGCCAGGCAGGCAUCAAAAGAAAUAGUCUUGCGCUCAACCAGAAAGUCUGUAAUCAUUUUAAGGGUA	1.5
GUUAUCGGUCAUAGGCCAUGGAAACUAGGAGCACCAUUUCGCUGCCAGUGAAGAAAUGAACAAAGAAAAUCUGGGCCAGGCAGGCAUCAAAAGAAAUAGUCUUGCGCUCAACCAGAAAGUCUGUAAUCAUUUUAAGGGUG	1.09

Variant	self-cleavage
GUUAACGGUCAUAGGCCAUGGAAACUAGGAGCACCAUUUCGCUGCCAGUGAAGAAAUGAACAACGAAAUUCUGGGCCAGGCAGGCAUCAAAAGAAAUAGUCUUGCGCUCAACCAGAAAGUCUGUAAUCAUUUUAAGGGUA	2.61
GUUAACGGUCAUAGGCCAUGGAAACUAGGAGCACCAUUUCGCUGCCAGUGAAGAUAUGAACAAAGAAAAUCUGGGCCAGGCAGGCAUCAAAAGAAAUUGUCUUGCGCUCAACCAGAAAGUCUGUAAUCAUUUUAAGGGUA	2.38
GUUAACGGUCAUAGGCCAUGGAAACUAGGAGCACCAUUUCGCUGCCAGUGAAGAAAUGAACAAAGAAAACCUGGGCCAGGCAGGCAUCAAAAGAAAUAGUCUUGCGCUCAACCAGAAAGUCUGUAAUCAUUUCAAGGGUA	0.98
GUUAACGGUCAUAGGCCAUGGAAGCUAGGAGCACCAUUUCGCUGCCAGUGAAGAAAUGAACAAAGAAAAUCUGGGCCAGGCAGGCAUCAAAAGAAAUAGUCUUGCGCUCAGCCAGAAAGUCUGUAAUCAUUUUAAGGGUA	0.03
GUUAACGGUCAUAGGCCAUGGAAACUAGGAGCACCAUUUCGCUGCUAGUGAAGAAAUGAACAAAGAAAAUCUGGGCCAGGCAGGCAUCAAAAGAAAUAGUCUUGCGCUCAACCAGAGAGUCUGUAAUCAUUUUAAGGGUA	2.01
GUUAACGGUCAUAGGCCAUGGAACCUAGGAGCACCAUUUCGCUGCCAGUGAAGAAAUGUACAAAGAAAAUCUGGGCCAGGCAGGCAUCAAAAGAAAUAGUCUUGCGCUCAACCAGAAAGUCUGUAAUCAUUUUAAGGGUA	1.57
GUUAACGGUCAUAGGCCAAGGAAACUAGGAGCACCAUUUCGCUGCCAGUGAAGAAAUGAACAAAGAAAAUCUGGGCCAGGCAGGCGUCAAAAGAAAUAGUCUUGCGCUCAACCAGAAAGUCUGUAAUCAUUUUAAGGGUA	2.13
GUUAACGGUCAUAGGCCAUGGAAACUAGGAGCACCAUUUCGCUGCCAGUGAAGAAAUGAACAAAGAAAAUCUGGGCCAGGCAGGCAUCAAAAGAAAUAGUCUUGCGCUCAACCAGAAAGUCAGUAAUCGUUUUAAGGGUA	1.38
GUUAACGGUCAUAGGCCAUGGAAGCUAGGAGCACCAUUUCGCUGCCAGUGAAGAAAUGAACAAAGAAAAUCUGGGCCAGGCAGGCAUCAAAAGAAAUAGUCUUGCGCUCAACCAGAAAGUCUGUAACCAUUUUAAGGGUA	0.74
GUUAACGGUCAUAGGCCAUGGAAACUAGGAGCACCAUUUCGCUGCCAGCGAAGAAAUGAACAAAGAAAAUCUGGGCCAGGCUGGCAUCAAAAGAAAUAGUCUUGCGCUCAACCAGAAAGUCUGUAAUCAUUUUAAGGGUA	0.2
GUUAAUGGUCUUAGGCCAUGGAAACUAGGAGCACCAUUUCGCUGCCAGUGAAGAAAUGAACAAAGAAAAUCUGGGCCAGGCAGGCAUCAAAAGAAAUAGUCUUGCGCUCAACCAGAAAGUCUGUAAUCAUUUUAAGGGUA	1.34
GUUAACGGUCAUAGGCCAUGGAUACUAGGAGCACCAUUUCGCUGCCAGUGAAGAAAUGAACAAAGAAAAUCUGGGCCAGGCAGGCAUCAAAAGAAAUAGUCUUGCGCUCAACCAUAAAGUCUGUAAUCAUUUUAAGGGUA	0.21
GUUAAUGGUCAUAGGCCAUGGAAACUAGGAGCACCAUUUCGCUGCCAGUGAAGAAAUGAACAAAGAAAAUCUGAGCCAGGCAGGCAUCAAAAGAAAUAGUCUUGCGCUCAACCAGAAAGUCUGUAAUCAUUUUAAGGGUA	0.46
GUUAACAGUCAUAGGCCAUGGUAACUAGGAGCACCAUUUCGCUGCCAGUGAAGAAAUGAACAAAGAAAAUCUGGGCCAGGCAGGCAUCAAAAGAAAUAGUCUUGCGCUCAACCAGAAAGUCUGUAAUCAUUUUAAGGGUA	1.51
GUUAACGGUCAUAGGCCAUGGAAACUAGGAGCACCAUUUCGCUGCCAGUGAAGAGAUGAACAAAGGAAAUCUGGGCCAGGCAGGCAUCAAAAGAAAUAGUCUUGCGCUCAACCAGAAAGUCUGUAAUCAUUUUAAGGGUA	1.4
GUUAACGGACAUAGGCCAUGGAAACUAGGGGCACCAUUUCGCUGCCAGUGAAGAAAUGAACAAAGAAAAUCUGGGCCAGGCAGGCAUCAAAAGAAAUAGUCUUGCGCUCAACCAGAAAGUCUGUAAUCAUUUUAAGGGUA	0.98
GUUAACGGUCAUAGGCCAUGGAAACUAGGAGCACCAUUUCGCUGCCAGUGAAGAAAUGAACAAAGAAAAUCUGGGCCAGGCAGGCAUCAAAAGAAAUGGUCUUGCGCUCAACCAGAAAGUCUGUAAUCAUUUUAAGGUUA	0.6
GUUAACGGUCAUAGGCCAUGGAAACUAGGAGCACCAUUUCGCUGUCAGUGAAGAAAUGAACAAAGAAAAUCUGGGCCAGGCAGGCAUCAAAAGAAAUAGUCUUGCGCUCAACCAGAAAGUCGGUAAUCAUUUUAAGGGUA	2.74
GUUAACGGUCAUAGGCCAUGGAAACUAGGAGCACUAUUUCGCUGCCAGUGAAGAAAUGAACAAAGAAAAUCUGGGCCAGGCAGGCAUCAAAAGAAAUAGUCUUGCGCUCAACCAGAAGGUCUGUAAUCAUUUUAAGGGUA	0.99
GUUAACGGUCAUAGGCCAAGGAAACUAGGAGCACCAUUUCGCUGCCAGUGAAGAAAUGAACAAAGAAAAUCUGGGCCAGGCAGGCAUCAGAAGAAAUAGUCUUGCGCUCAACCAGAAAGUCUGUAAUCAUUUUAAGGGUA	0.53
